Laboratory results reported in patent US20090036382A1, “TGF-Beta Modulators and Use Thereof” (Universita' Degli Studi Di Padova, priority 2006, published 2009).

Columns and labels:
pro TGF-β1 = test: CAGA12-lux luciferase reporter in HEK293T cells co-transfected with pro TGF-β1 vector; assay type: cell-based, human; conditions: CAGA12-lux, co-transfection with pro TGF-β1 vector, FIG. 2B, 2C
In short: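 HEK293T cells co-transfected with CAGA12-lux TGF-β-responsive luciferase reporter and human pro-TGF-β1 vector, with or without emilin1, EMI-domain or emilin1ΔEMI constructs; CMV-lacZ co-transfected. Reporter controls treated with 5 ng/ml recombinant TGF-β1; luciferase expression reported as mean±SD.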

mature TGF-β1 = test: CAGA12-lux luciferase reporter in HEK293T cells treated with recombinant TGF-β1; assay type: cell-based; conditions: 5 ng/ml recombinant TGF-β1, expression vector 500 ng, FIG. 2B
Method: To verify how emilin or the EMI domain can contrast TGF-β1 activity independently from receptor binding, HEK293T cells were transfected with a construct coding luciferase placed under control of a TGF-β activated promoter: CAGA12-lux (Jonk et al., 1998) alone or in combination with a emilin1 expression vector (500 ng) as shown in FIG. 2B. After transfection, cells were treated (black bar) or not treated (white bar) with 5 ng/ml recombinant TGF-1 (lanes 1 and 2). Column bars from 3 to 6 report luciferase expression values in experiments with cells co-transfected with the expression vector for emilin1 (or EMI-domain or emilin1ΔEMI) alone (white bars) or in combination with the vector encoding pro TGF-β1 (black bars). Values show the mean±st. dev.

pro TGF-β1 processing = molecular target: T1, pro TGF-β1 processing (Homo sapiens, UniProt P01137); test: Western blot of pro TGF-β1 conversion to LAP and mature TGF-β1 in transfected HEK293T cells; assay type: cell-based; conditions: HEK293T cotransfected; cell extracts anti-LAP, supernatants anti-TGF-β1; FIG. 4D
T1 construct: Flag; expressed in transfected cells; host or cells: HEK293T (A6); mouse embryo fibroblasts (A8)
T1 sequence (P01137 30-390): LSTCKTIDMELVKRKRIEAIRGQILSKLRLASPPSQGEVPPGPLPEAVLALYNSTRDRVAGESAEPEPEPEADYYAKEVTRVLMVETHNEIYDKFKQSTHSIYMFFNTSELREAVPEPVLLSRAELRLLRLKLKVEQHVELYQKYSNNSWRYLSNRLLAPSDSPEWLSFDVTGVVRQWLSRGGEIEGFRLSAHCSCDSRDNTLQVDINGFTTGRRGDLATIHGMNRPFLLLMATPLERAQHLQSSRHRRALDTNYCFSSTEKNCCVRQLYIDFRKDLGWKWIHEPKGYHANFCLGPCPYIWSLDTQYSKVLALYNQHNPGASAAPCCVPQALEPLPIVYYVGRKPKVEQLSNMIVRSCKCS
Text: • The construct for emilin 1 expression was engineered in pCS2 vector (Rupp R. A. et al., 1994, Genes Dev 8, 1311-1323) (for a physical map of the vector, see the site faculty.washington.edu/rtmoon/pcs2+.html) as described (Zanetti M. et al., 2004, Mol Cell Biol 24, 638-650); the vector used for proTGF-β expression in MEF and HEK293T cells is pCDNA3.1 (Invitrogen). Vectors containing the coding sequence for human pro TGF-β are described in Young and Murphy-Ullrich, 2004 (Young and Murphy-Ullrich, 2004, J Biol Chem 279, 38032-38039). The human pro TGF-β cDNA sequence is reported in the data bank (NP_000660; protein 000651). • The vector for Furin/SPC 1 expression is pCDNA3.1 (Invitrogen) • p15 and CAGA 12 promoter fragments are described in Jonk L. J. et al., 1998, J Biol Chem 273, 21145-21152 […]. • Constructs containing Flag sequences are described in Young G. D and Murphy-Ullrich J E, 2004, J Biol Chem 279, 38032-38039. • Constructs containing the Flag epitope (e.g. Flag-EMI-domain-GPI) were prepared as described in Chubet R G et al. Biotechniques 1996; 20(1):136-141 and detected by anti-Flag antibody (Kodak Inc.). • Constructs containing the GPI anchor were prepared as described in the Manual “Current Protocols in Cell Biology” Howard R. Petty Wayne State University, Detroit, Mich.; Juan S. Bonifacino, Mary Dasso, Joe B. Harford, Jennifer Lippincott-Schwartz, and Kenneth M. Yamada (eds.), Copyright C 2003 John Wiley & Sons, Inc. (GPI-anchor). In the construct Flag-EMI domain-GPI, the Flag sequence was inserted at the N-terminus after the signal peptide, while the GPI-anchor sequence was placed at the COOH-terminal end. • The construct emilin 1-KDEL was obtained by inserting the KDEL coding sequence described by Munro S., and Pelham, H. R., 1987, Cell 48, 899-907 upstream the emilin 1 STOP codon. • The construct containing the type II TGF-β receptor with HA epitope was described in Wrana J. L. et al., 1994, Nature 370, 341-347. • supplier of the drugs used: SP600125 (Calbiochem), SB431542 (Tocris). • Purified recombinant LAP and TGF-β1 proteins were purchased from (R&D Systems)
To verify whether emilin or its EMI domain inhibit TGF-β or its precursor, HEK293T cells were cotransfected with plasmids driving the expression of pro TGF-β1 (fused to the FLAG-domain, even though the antibody used were directed at LAP and TGF-β proteins) and emilin-1 (or EMI-domain). […] The anti-Flag antibody used was obtained from Kodak Inc; for the preparation of Flag constructs, see Younjg and Murphy-Ullrich (Young and Murphy-Ullrich, 2004).
As reported in the summary scheme above FIG. 5A, HEK293T cells were transfected with the plasmid encoding pro TGF-β1 (lane 1) and cotransfected with emilin-1 (lane 3) or treated with decanoyl-RVKR-CMK peptide (Decanoyl-Arg-Val-Lys-Arg-chloromethylketone, Alexis Corporation, Lausen, Switzerland) (lane 2) at a concentration of 100 μM. The peptide is an irreversible and competitive inhibitor of furin proprotein convertase and of other SPC family members (Proprotein Convertase); in addition, it inhibits pro-MMP2 dependent furin activation. The supernatant was then loaded on SDS-PAGE and detected by Western-blot with anti-TGF-β1 antibody. […] An increase of the precursor band in lanes 2 and 3 is […] to the decrease of TGF-β. Therefore it can be concluded that this assay detects an effect of emilin-1 on TGF-β1 processing that is similar to the effect of Furin inhibitors.

TGF-β3 = test: Experiments in Xenopus on interaction of the EMI domain with TGF-β3

B1: EMI domain: cysteine-rich domain of emilin-1, residues 55-131, SEQ ID NO 2; in some experiments Flag-tagged and GPI-anchored (protein)
chain: RHRNWCAYVVTRTVSCVLEDGVETYVKYQPCAWGQPQCPQSIMYRRFLRPRYRVAYKTVTDMEWRCCQGYGGDDCAE
modifications: sometimes Flag tag and GPI anchor; homo sapiens
notes: in some experiments Flag-tagged and GPI-anchored
With B1 the “Effect on luciferase expression induced by pro TGF-β1” value (pro TGF-β1) was “inhibits pro TGF-β”, the “Effect on luciferase expression induced by mature TGF-β” value (mature TGF-β1) was “does not antagonize mature TGF-β” and the “Conversion of pro TGF-β1 to LAP and mature TGF-β1 (band intensity)” value (pro TGF-β1 processing) was “inhibit the conversion of pro TGF-β1”. The “Interaction with TGF-β3” value (TGF-β3) was “interaction”.
